Where “and” joins values, the source holds several entries; their conditions need not be identical. Identical values can stand only once. Like-named read-outs stand apart in the source and are kept apart here.
B1: KCD122 (antibody, V domains shown)
VH: EVQLQQSGPELVKPGASVKISCKASGYTFTDYYKNWMRQRHGESLEWIGDINPNNGDANYNQKFKGKATLTVDKSSSTAYMELRSLTSEDSAVYFCAREGPSFAYWGHGTLVTVSA
VL: DVLMTQTPLSLPVSLGDQASISCRSSQTIVHSNGDTYLEWYLQKPGQSPNLLIYKVSNRFSGVPDRFSGSGSGTDFTLKISRVEAEDLGVYYCFQGSHVPPTFGGGTKLEIK
notes: chimeric
B2: KCD005 (antibody, V domains shown)
VH: EVQLQQSGPELVKPGASVKISCKASGYTFTDHYMNWVKQSHGKSLEWIGDINPNNGGTSCNQKFKGKATLTVDKSSSTAYMELRSLTSGDSAVYYCTREGASFAFWGQGTLVTVSA
VL: DVLMTQTPLSLPVSLGDQASISCRSSQSIVHSNGDTYLEWYLQKPGQSPKLLIYKVSNRFSGVPDRFSGSGSGTDFTLKISRVEAEDLGVYYCFQGSHVPVTFGAGTKLELK
notes: chimeric
B3: KCD118 (antibody, V domains shown)
VH: EVQLQQSGPELVKPGASVKISCKAFGYTFTDYYKNWMRQRHGESLEWIGDINPNSGDANYNQKFKGKATLTVDKSSSTAYMELRSLTSEDSAVYYCAREGPSFAYWGHGTLVTVSA
VL: DVLMTQTPLSLPVSLGDQASISCRSSQTIVHSNGDTYLEWYLQKPGQSPNLLIYKVSNRFSGVPDRFSGSGSGTDFTLKISRVEAEDLGIYYCFQGSHVPPTFGGGTKLEIK
notes: chimeric
B4: KCD003 (antibody, V domains shown)
VH: EVQLQQSRPELVKPGASVKIFCKASGYTFTDYYMNWMRQRHGETLEWIGDINPNNGDPSYNQKFKDKATLTVDKSSSTASMELRSLTSDDSAVYYCAREGPSFAYWGQGTLVTVSA
VL: DVLMTQTPLSLPVSLGEQASISCRSSQTIVHSNGDTYLEWYLQKPGQSPNLLIYKVSNRFSGVPDRFSGSGSGTDFTLKISRVEAEDLGVYYCFQGSHVPPTFGGGTKLEIK
notes: chimeric
B5: KCD121 (antibody, V domains shown)
VH: EVQLQQSGPELVKPGASVKISCKASGYTFTDYYKNWMRQRHGESLEWIGDINPNNGDTSYNQKFRGKATLTVDKSSSTAFMELRSLTSEDSAVYYCAREGPSFAYWGQGTLVTVSA
VL: DVLMTQTPLSLPVSLGDQASISCRSNQTIVHSNGDTYLEWYLQKPGQSPNLLIYKVSNRFSGVPDRFSGSGSGTDFTLRISRVEAEDLGVYYCFQGSHVPPTFGGGTKLEIK
notes: chimeric
B6: KCD123 (antibody, V domains shown)
VH: EVHLQQSGPELVKPGASVKISCKASGYTFTDFYKNWMRQRHGESLEWIGDINPNNGGTNYNQKFKGKATLTVDKSSSTAYMELRSLTSEDSAVYYCAREGPSFAYWGQGTLVTVSA
VL: DVLMTQTPLSLPVSLGDQASISCRSSQTIVHSNGDTYLEWYLQKPGQSPNLLIYKVSNRFSGVPDRFSGSGSGTDFTLKISRVEAEDLGVYYCFQGSHVPPTFGGGTKLEIK
notes: chimeric
B7: KCD131 (antibody, V domains shown)
VH: QVQLQQSGPELVKPGASVKISCKASAYTFTDYYINWVKQRPGQGPEWIGWIFPGSNSTYSNEKFEVKATLTVDESSSTAYMLLSSLTSEDSAVYFCARLGYFGSSYHALDYWGQGTSVTVSS
VL: DIQMTQSPASLSVSVGETVTITCRASENIYSHLAWFQQKQGKSPRLLVYSATNLPDGVPSRFSGSGSGTQYSLKINILQSEDFGSYYCQHFWGTPWTFGGGTKLEIK
notes: chimeric
B8: 31S54I59D / 54R101V (antibody, V domains shown)
VH: EVQLVESGGGLVQPGGSLRLSCAASGYTFTSYYMNWVRQAPGKGLEWIGDINPITGDTDYNADFKRRFTFSLDTSKSTAYLQMNSLRAEDTAVYYCTREGPSFAYWGQGTLVTVSS
VL: DIQLTQSPSSLSASVGDRVTITCRSSQTIVHSNGDTYLEWYQQKPGKAPNLLIRKVSNRFSGVPSRFSGSGSGTDFTLTISSLQPEDFATYYCFQGSHVPVTFGQGTKVEIKR
notes: KCD119 TAF variant
B9: 31S54I59D84S / 54R101V (antibody, V domains shown)
VH: EVQLVESGGGLVQPGGSLRLSCAASGYTFTSYYMNWVRQAPGKGLEWIGDINPITGDTDYNADFKRRFTFSLDTSKSTAYLQMSSLRAEDTAVYYCTREGPSFAYWGQGTLVTVSS
VL: DIQLTQSPSSLSASVGDRVTITCRSSQTIVHSNGDTYLEWYQQKPGKAPNLLIRKVSNRFSGVPSRFSGSGSGTDFTLTISSLQPEDFATYYCFQGSHVPVTFGQGTKVEIKR
notes: also called 31554159D845 / 54R101V
B10: KCD010 (antibody, V domains shown)
VH: EVLLQQSGPELVKPGASVKIPCKASGYTFTDYDMDWVKQSHGKSLEWIGHINPNNGGTIYNQKFKGKATLTVDKSSSTAYMELRSLTSEDTAVYYCGTGDFAYWGHGTLVTVSA
VL: QIVLTQSPAIMSVSPGEKVTLTCSASSSVSSSYLYWYQKKPGSSPKLWIYSTSNLASGVPARFSGSGSGTSYSLTISSMEAEDAASYFCHQWSSYPPTFGAGTKLELK
notes: chimeric
B11: KCD220 (antibody, V domains shown)
VH: QVQLQQSGAELMEPGASVKLSCKATGYTFTGYWIEWVKQRPGHGLEWIGETLPGSDSNNYNEKFKGKATFTADTSSNTAYMQLSSLTTEDSAIYYCARDYSNYWYFDVWGTGTTVTVSS
VL: DIQMTQTTSSLSASLGDRVTISCRASQDISNYLNWYQQKPDGTVKLLIYYTSNLHSGVPSRFSGSGSGTDYSLTISNLEQEDIATYFCQQDSKHRTFGGGTKLEIK
notes: chimeric

How the values were obtained:
[1] = molecular target: T1, recombinant human CFD mutant 1 (R157A, R207A), His-tagged (human, UniProt P00746 26-253); assay: ELISA, Mut1 Binding, Bin 2
T1 construct: positions are linear positions in the mature protein; also called rhCFD-mut1-His; Mut1

[2] = molecular target: T2, recombinant cynomolgus CFD, His-tagged (cynomolgus); assay: SPR MX96
T2 construct: also called rcyCFD-His; recombinant Cyno-CFD

[3] = molecular target: T3, recombinant human CFD, His-tagged (human, UniProt P00746 26-253); assay: SPR MX96
T3 construct: also called rhCFD-His

[4] = molecular target: T4, human complement factor D purified from serum (human, UniProt P00746 26-253); assay: SPR MX96
T4 construct: serum-purified (CompTech); also called hCFD-Comptech; CFD

[5] = molecular target: T1, recombinant human CFD mutant 1 (R157A, …); assay: ELISA
[6] = molecular target: T4, human complement factor D purified from …; assay: cell-based or functional assay
[7] = molecular target: T4, human complement factor D purified from …
[8] = molecular target: T4, human complement factor D purified from …; remark: listed apart in the source
[9] = molecular target: T1, recombinant human CFD mutant 1 (R157A, …); assay: SPR MX96
[10] = molecular target: T1, recombinant human CFD mutant 1 (R157A, …); assay: ELISA; remark: listed apart in the source
[11] = molecular target: T4, human complement factor D purified from …; assay: cell-based or functional assay; remark: listed apart in the source
[12] = molecular target: T5, serum purified human Complement Factor D (human, UniProt P00746 26-253); assay: SPR Biacore, 37 C
T5 construct: Serum purified protein flowed over the captured antibodies; also called CFD; human CFD

[13] = molecular target: T5, serum purified human Complement Factor D; assay: SPR Biacore, 25 C
[14] = molecular target: T5, serum purified human Complement Factor D; assay: SPR Biacore, 37 C; remark: listed apart in the source
[15] = molecular target: T5, serum purified human Complement Factor D; assay: SPR Biacore, 25 C; remark: listed apart in the source
[16] = molecular target: T5, serum purified human Complement Factor D; assay: SPR Biacore, antibody on protein A chip, single cycle kinetics, 25 C;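 note: antibodies captured to roughly 70 RU on the protein A surface in HBS-EP+ running buffer, with kinetic constants derived by BIAevaluation fitting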
[17] = molecular target: T5, serum purified human Complement Factor D; assay: SPR Biacore, antibody on protein A chip, single cycle kinetics, 37 C;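 note: antibodies captured on the protein A surface to roughly 70 RU in HBS-EP+ buffer, with rate and affinity constants fitted using BIAevaluation software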
Throughout, for CFD Enzymatic activity (% of Neg Ctrl): test concentration or dose not given here.

T3 sequence (P00746 26-253 limits assumed): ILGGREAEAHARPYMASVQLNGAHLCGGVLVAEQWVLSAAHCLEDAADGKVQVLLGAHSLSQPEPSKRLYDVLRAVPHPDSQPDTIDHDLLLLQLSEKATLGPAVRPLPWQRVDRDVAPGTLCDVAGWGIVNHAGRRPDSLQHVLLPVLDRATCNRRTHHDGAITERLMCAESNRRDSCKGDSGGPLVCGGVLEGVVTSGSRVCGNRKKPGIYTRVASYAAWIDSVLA
T4 sequence (P00746 26-253): as the sequence (P00746 26-253 limits assumed) above
T5 sequence (P00746 26-253): as the sequence (P00746 26-253 limits assumed) above
T1 sequence (P00746 26-253 R182A/R232A limits assumed): as the sequence (P00746 26-253 limits assumed) above, with R157A, R207A counted along it

Row | Binder | binding result [1] | Kd [2] | Kd [3] | Kd [4] | Mut1 Binding (% wt) [5] | CFD Enzymatic activity (% of Neg Ctrl) [6] | Kd [7] | also measured
1 | B1 | no binding | 1.9 nM | 0.95 nM | 1.4 nM | 2.25 % wt | 17.3 % of Neg Ctrl | 0.162 nM | –
2 | B2 | no binding | 2.3 nM | 1.2 nM | 1.4 nM | 1.79 % wt | 49.2 % of Neg Ctrl | 0.726 nM | –
3 | B3 | no binding | 1.3 nM | 0.54 nM | 0.76 nM | 0.762 % wt | 14 % of Neg Ctrl | 0.0883 nM | –
4 | B4 | no binding | 1.8 nM | 0.81 nM | 1.1 nM | 1.53 % wt | 19.6 % of Neg Ctrl | 0.318 nM | –
5 | B5 | no binding | 2.9 nM | 1.3 nM | 1.8 nM | 0.602 % wt | 16.7 % of Neg Ctrl | 0.293 nM | –
6 | B6 | no binding | 2.9 nM | 1.3 nM | 2.8 nM | 2.91 % wt | 18.7 % of Neg Ctrl | 0.277 nM | –
7 | B7 | – | 0.99 nM | 0.047 nM | 0.14 nM | – | – | – | Kd [8]: 0.0342 nM; Kd [9]: 0.045 nM; Mut1 Binding (% wt) [10]: 80.7 % wt; CFD Enzymatic activity (% of Neg Ctrl) [11]: 65.9 % of Neg Ctrl
8 | B8 | – | – | – | – | – | – | – | Kd [12]: 0.00817 nM; koff [12]: 0.000227 s⁻¹; kon [12]: 2.78e+07 M⁻¹ s⁻¹; Kd [13]: 0.00366 nM; koff [13]: 5.12e-05 s⁻¹; kon [13]: 1.4e+07 M⁻¹ s⁻¹; Kd [14]: 0.00691 nM; koff [14]: 0.000214 s⁻¹; kon [14]: 3.09e+07 M⁻¹ s⁻¹; Kd [15]: 0.00836 nM; koff [15]: 0.00012 s⁻¹; kon [15]: 1.44e+07 M⁻¹ s⁻¹; Kd [16]: 0.00779 nM and 0.00366 nM and 0.00836 nM; koff [16]: 7.94e-05 s⁻¹ and 5.12e-05 s⁻¹ and 0.00012 s⁻¹; kon [16]: 1e+07 M⁻¹ s⁻¹ and 1.4e+07 M⁻¹ s⁻¹ (2×); Kd [17]: 0.00605 nM and 0.00691 nM and 0.00817 nM; koff [17]: 0.00021 s⁻¹ and 0.000214 s⁻¹ and 0.000227 s⁻¹; kon [17]: 3.48e+07 M⁻¹ s⁻¹ and 3.09e+07 M⁻¹ s⁻¹ and 2.78e+07 M⁻¹ s⁻¹
9 | B9 | – | – | – | – | – | – | – | Kd [13]: 0.00613 nM; koff [13]: 9.14e-05 s⁻¹; kon [13]: 1.49e+07 M⁻¹ s⁻¹; Kd [14]: 0.00613 nM; koff [14]: 0.000174 s⁻¹; kon [14]: 2.84e+07 M⁻¹ s⁻¹; Kd [16]: 0.00613 nM; koff [16]: 9.14e-05 s⁻¹; kon [16]: 1.49e+07 M⁻¹ s⁻¹; Kd [17]: 0.00613 nM; koff [17]: 0.000174 s⁻¹; kon [17]: 2.84e+07 M⁻¹ s⁻¹
10 | B10 | no binding | 2.9 nM | 2.5 nM | 3.1 nM | 3.77 % wt | 49.4 % of Neg Ctrl | 1.46 nM | –
11 | B11 | – | 0.28 nM | 0.074 nM | 0.054 nM | – | – | – | Kd [8]: 0.0639 nM; Kd [9]: 0.029 nM; Mut1 Binding (% wt) [10]: 74.1 % wt; CFD Enzymatic activity (% of Neg Ctrl) [11]: 88.1 % of Neg Ctrl
